Results reported in the Human Domainome abundance scans (Beltran et al. 2025).
± gives the uncertainty stated by the source.

B1: Serine/threonine-protein kinase LATS1, residues 98 to 141; numbered along this chain, O95835 (parent)
chain: TSEVNPQMLQDLQAAGFDEDMVIQALQKTNNRSIEAAIEFISKM

Variants of: B1
Assay: abundance fitness (aPCA) (normalised: wild type 0, dead -1); higher = more abundant; growth selection in yeast, the domain comes from the species named
Details: Homo sapiens

Variant	abundance fitness
S33W	-1.12 ± 0.11
S33K	-0.528 ± 0.097
S33D	-0.4 ± 0.05
Q24V	-0.033 ± 0.033
Q24A	-0.066 ± 0.034
Q24I	-0.015 ± 0.083
Q24L	0.013 ± 0.036
V22S	0.183 ± 0.041
V22E	-0.355 ± 0.052
V22P	-0.47 ± 0.05
V22Q	-0.48 ± 0.065
T29N	-0.414 ± 0.1
T29R	-0.715 ± 0.041
T29I	-0.589 ± 0.073
T29L	-0.954 ± 0.071
D18V	-0.597 ± 0.044
D18C	-0.187 ± 0.23
D18G	-0.169 ± 0.035
Q10D	-0.12 ± 0.054
Q10S	-0.07 ± 0.034
Q10K	0.013 ± 0.046
K28S	-0.041 ± 0.035
K28I	-0.445 ± 0.13
K28H	0.073 ± 0.054

Variant	abundance fitness
K28T	-0.259 ± 0.067
K28A	0.12 ± 0.038
E3Y	-0.2 ± 0.14
E3F	-0.18 ± 0.095
E3C	-0.855 ± 0.073
E3D	-0.099 ± 0.069
I34Y	-0.468 ± 0.15
F40C	-0.016 ± 0.058
F40D	-0.055 ± 0.058
F40I	-0.171 ± 0.057
A37G	-0.401 ± 0.032
A37P	-0.42 ± 0.1
S42W	-0.14 ± 0.04
S42A	-0.023 ± 0.033
D11K	0.083 ± 0.1
D11F	-0.045 ± 0.051
D11P	-1.08 ± 0.15
D11S	-0.021 ± 0.043
T1D	0.018 ± 0.087
T1A	-0.062 ± 0.042
T1N	0.316 ± 0.13
S2I	-0.035 ± 0.12
S2G	0.029 ± 0.034
S2Y	-0.231 ± 0.086

Variant	abundance fitness
S2E	-0.014 ± 0.06
S2M	-0.143 ± 0.043
Q13H	-0.42 ± 0.073
Q13L	0.104 ± 0.038
Q13Y	-0.53 ± 0.054
Q13C	0.037 ± 0.049
Q13A	-0.131 ± 0.042
L9R	-0.104 ± 0.062
L9G	-0.481 ± 0.082
D20V	-0.261 ± 0.043
D20Q	-0.07 ± 0.075
D20I	-0.384 ± 0.087
D20E	0.007 ± 0.045
N30K	-0.021 ± 0.042
N30T	-0.533 ± 0.055
N30W	-1.07 ± 0.086
N30A	-0.193 ± 0.033
N30G	0.045 ± 0.032
N30S	-0.107 ± 0.042
M8F	-0.162 ± 0.057
M8H	-0.244 ± 0.084
M8A	-0.525 ± 0.051
M8K	-0.485 ± 0.056
M8W	-0.208 ± 0.056

Variant	abundance fitness
M8D	-0.419 ± 0.074
M8L	-0.203 ± 0.035
N31W	-0.557 ± 0.046
N31L	-0.75 ± 0.049
M21N	-0.148 ± 0.071
P6G	-0.048 ± 0.031
P6L	-0.13 ± 0.035
P6S	-0.052 ± 0.05
P6K	0.101 ± 0.042
P6Y	-0.119 ± 0.064
P6C	-0.219 ± 0.098
I41M	0.046 ± 0.048
I41L	-0.046 ± 0.039
I41C	-0.225 ± 0.056
I41K	-0.255 ± 0.052
R32D	-0.26 ± 0.042
R32V	0.017 ± 0.036
R32W	-0.484 ± 0.043
R32E	0.095 ± 0.042
R32C	0.007 ± 0.068
I23L	-0.188 ± 0.044
I23D	-0.283 ± 0.081
I23V	0.039 ± 0.037
I23G	-0.322 ± 0.034

Variant	abundance fitness
I23H	-0.314 ± 0.064
M44V	0.011 ± 0.041
M44R	-0.057 ± 0.039
M44L	-0.11 ± 0.038
M44S	-0.04 ± 0.059
E39M	-0.286 ± 0.093
E39F	-0.884 ± 0.13
E39W	-0.728 ± 0.051
E39N	-0.111 ± 0.069
Q27W	-0.57 ± 0.042
Q27R	-0.042 ± 0.031
Q7G	-0.157 ± 0.033
Q7M	-0.178 ± 0.074
Q7T	-0.079 ± 0.053
Q7R	-0.129 ± 0.031
Q7K	0.009 ± 0.04
Q7D	-0.111 ± 0.071
I38S	-0.113 ± 0.042
I38G	-0.169 ± 0.035
F17R	-0.648 ± 0.046
F17N	-0.116 ± 0.26
F17E	-0.272 ± 0.043
F17W	-0.198 ± 0.048
F17K	-0.648 ± 0.11

Variant	abundance fitness
F17V	-0.501 ± 0.04
F17S	-0.495 ± 0.038
A15R	0.022 ± 0.04
A15L	-0.003 ± 0.038
A15H	-0.36 ± 0.11
A15D	-0.358 ± 0.068
A15C	-0.287 ± 0.06
A36G	-0.195 ± 0.031
A36R	-0.404 ± 0.032
A36M	-0.316 ± 0.05
N5Y	-0.964 ± 0.1
L12Y	-1.06 ± 0.32
L12K	-0.658 ± 0.058
L12T	-0.636 ± 0.052
L12F	-0.737 ± 0.12
L12E	-0.477 ± 0.046
L12R	-0.715 ± 0.043
K43G	-0.036 ± 0.033
K43M	-0.071 ± 0.088
K43L	-0.117 ± 0.041
K43V	-0.135 ± 0.04
K43H	0.169 ± 0.14
K43I	-0.435 ± 0.14
E19N	-0.233 ± 0.05

Variant	abundance fitness
G16N	-0.494 ± 0.17
G16L	-0.898 ± 0.1
G16V	-1.11 ± 0.085
G16D	-0.5 ± 0.06
V4C	-0.277 ± 0.044
V4E	-0.402 ± 0.045
V4G	-0.388 ± 0.035
V4M	-0.453 ± 0.054
V4L	-0.367 ± 0.038
V4N	-0.204 ± 0.067
V4I	-0.15 ± 0.12
A14Q	-0.132 ± 0.051
A14S	-0.047 ± 0.045
A14G	-0.19 ± 0.032
E35P	-0.164 ± 0.055
E35R	-0.263 ± 0.035
E35Q	-0.141 ± 0.041
E35L	-0.541 ± 0.059
E35M	-0.307 ± 0.24
L26W	-0.683 ± 0.045
L26M	-0.559 ± 0.072
A25I	-0.631 ± 0.24
A25D	-0.541 ± 0.088
